# Assay results from the supplement of paper PMC9112550, “Optimization of the antimicrobial peptide Bac7 by deep mutational scanning” (BMC Biology, 2022).
# Test system: Escherichia coli TOP10
# Assay: shrunken log2 fold change of peptide-encoding DNA abundance (4.5 h post-induction vs induction); higher = less antimicrobial activity (less host growth inhibition)
# Conditions: time post-induction: 4.5 h; library: site-saturation at positions 5, 18, 19, 20
# 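Also: peptides expressed intracellularly from a pBAD plasmid library in pooled LB shake-flask culture, induced with 0.3% L-arabinose, DNA abundance read by NGS, three biological replicates, DESeq2 with apeglm shrinkage.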
row,Sequence,shrunken log2 fold change
1,RRIRDRPPRLPRPRPRPMVIPRP,0.0392
2,RRIRCRPPRLPRPRPRPFRKPRP,-0.0377
3,RRIRSRPPRLPRPRPRPIWKPRP,0.346
4,RRIRIRPPRLPRPRPRPEIGPRP,-0.0838
5,RRIRARPPRLPRPRPRPEAMPRP,0.805
6,RRIRGRPPRLPRPRPRPANTPRP,0.152
7,RRIRRRPPRLPRPRPRPPHYPRP,1.15
8,RRIRGRPPRLPRPRPRPWGSPRP,0.268
9,RRIRGRPPRLPRPRPRPGTSPRP,0.278
10,RRIRYRPPRLPRPRPRPVEKPRP,-0.129
11,RRIRNRPPRLPRPRPRPMEGPRP,-0.00992
12,RRIRHRPPRLPRPRPRPMVWPRP,0.0787
13,RRIRFRPPRLPRPRPRPNVSPRP,-0.0196
14,RRIRFRPPRLPRPRPRPSDPPRP,-0.106
15,RRIRSRPPRLPRPRPRPSWPPRP,-0.135
16,RRIRVRPPRLPRPRPRPDPKPRP,0.203
17,RRIRKRPPRLPRPRPRPHCYPRP,-0.605
18,RRIRWRPPRLPRPRPRPMNAPRP,0.327
19,RRIRMRPPRLPRPRPRPGRKPRP,1.32
20,RRIRTRPPRLPRPRPRPQIAPRP,-0.0663
21,RRIRERPPRLPRPRPRPPNFPRP,-0.329
22,RRIRGRPPRLPRPRPRPPWIPRP,0.256
23,RRIRIRPPRLPRPRPRPDTSPRP,-0.283

row,Sequence,shrunken log2 fold change
1,RRIRPRPPRLPRPRPRPWSDPRP,-0.267
2,RRIRVRPPRLPRPRPRPDEQPRP,0.353
3,RRIRERPPRLPRPRPRPDVPPRP,-0.117
4,RRIRKRPPRLPRPRPRPIWLPRP,0.00836
5,RRIRDRPPRLPRPRPRPLGIPRP,0.143
6,RRIRSRPPRLPRPRPRPLNDPRP,-0.182
7,RRIRCRPPRLPRPRPRPGECPRP,0.198
8,RRIRDRPPRLPRPRPRPMICPRP,-0.0307
9,RRIRARPPRLPRPRPRPDHNPRP,-0.154
10,RRIRRRPPRLPRPRPRPNVAPRP,0.304
11,RRIRSRPPRLPRPRPRPIIAPRP,-0.0683
12,RRIRARPPRLPRPRPRPMSSPRP,0.0476
13,RRIRLRPPRLPRPRPRPMVHPRP,0.012
14,RRIRQRPPRLPRPRPRPMDIPRP,-0.155
15,RRIRERPPRLPRPRPRPWPFPRP,-0.0819
16,RRIRDRPPRLPRPRPRPAADPRP,0.701
17,RRIRERPPRLPRPRPRPEAAPRP,0.575
18,RRIRCRPPRLPRPRPRPVGNPRP,-0.0972
19,RRIRMRPPRLPRPRPRPNQWPRP,2.38
20,RRIRNRPPRLPRPRPRPKMTPRP,-0.149
21,RRIRCRPPRLPRPRPRPVYHPRP,-0.53
22,RRIRFRPPRLPRPRPRPAKAPRP,0.26
23,RRIRPRPPRLPRPRPRPGFVPRP,0.143

row,Sequence,shrunken log2 fold change
1,RRIRQRPPRLPRPRPRPMCGPRP,0.31
2,RRIRYRPPRLPRPRPRPDAGPRP,-0.492
3,RRIRVRPPRLPRPRPRPTHEPRP,0.256
4,RRIRERPPRLPRPRPRPDCKPRP,0.0476
5,RRIRIRPPRLPRPRPRPNPTPRP,-0.17
6,RRIRIRPPRLPRPRPRPWEKPRP,-0.00992
7,RRIRDRPPRLPRPRPRPHMAPRP,-0.232
8,RRIRARPPRLPRPRPRPLMGPRP,0.489
9,RRIRPRPPRLPRPRPRPNWDPRP,0.0377
10,RRIRRRPPRLPRPRPRPRTGPRP,0.476
11,RRIRIRPPRLPRPRPRPLLMPRP,-0.489
12,RRIRIRPPRLPRPRPRPLVCPRP,-0.346
13,RRIRNRPPRLPRPRPRPELFPRP,-0.0281
14,RRIRYRPPRLPRPRPRPPNIPRP,-0.659
15,RRIRSRPPRLPRPRPRPDVMPRP,-0.0117
16,RRIRIRPPRLPRPRPRPVIFPRP,-0.402
17,RRIRVRPPRLPRPRPRPMCWPRP,0.00173
18,RRIRVRPPRLPRPRPRPNYYPRP,-0.373
19,RRIRVRPPRLPRPRPRPLQCPRP,-0.371
20,RRIRLRPPRLPRPRPRPQSNPRP,-0.0786
21,RRIRWRPPRLPRPRPRPKYSPRP,-0.654
22,RRIRERPPRLPRPRPRPEFKPRP,0.114
23,RRIRKRPPRLPRPRPRPTTYPRP,0.00371

row,Sequence,shrunken log2 fold change
1,RRIRNRPPRLPRPRPRPGQTPRP,0.00913
2,RRIRTRPPRLPRPRPRPGNLPRP,0.021
3,RRIRGRPPRLPRPRPRPDRTPRP,-0.0561
4,RRIRGRPPRLPRPRPRPLASPRP,0.894
5,RRIRKRPPRLPRPRPRPNQCPRP,0.0387
6,RRIRHRPPRLPRPRPRPHYRPRP,-0.0219
7,RRIRSRPPRLPRPRPRPFTEPRP,-0.0824
8,RRIRQRPPRLPRPRPRPIANPRP,-0.0128
9,RRIRTRPPRLPRPRPRPIVFPRP,-0.218
10,RRIRQRPPRLPRPRPRPQKYPRP,-0.517
11,RRIRGRPPRLPRPRPRPTAHPRP,1.12
12,RRIRGRPPRLPRPRPRPMTQPRP,0.28
13,RRIRGRPPRLPRPRPRPTQPPRP,1.12
14,RRIRERPPRLPRPRPRPKCVPRP,0.0364
15,RRIRWRPPRLPRPRPRPWMYPRP,-0.02
16,RRIRMRPPRLPRPRPRPLTAPRP,1.15
17,RRIRWRPPRLPRPRPRPEKLPRP,0.225
18,RRIRIRPPRLPRPRPRPGCDPRP,0.0474
19,RRIRCRPPRLPRPRPRPYEMPRP,-0.151
20,RRIRSRPPRLPRPRPRPFHQPRP,-0.418
21,RRIRRRPPRLPRPRPRPQMGPRP,0.231
22,RRIRYRPPRLPRPRPRPKHHPRP,-0.986
